1 protein from publication PMC4041440, “Structural and biophysical characterization of Staphylococcus aureus SaMazF shows conservation of functional dynamics” (Nucleic Acids Research, 2014) can be followed below.

The data set concerns the molecule itself. Kind of data set: SEC; analytical gel filtration, Superdex HR75 10/30, 20 mM Tris-HCl pH 8.0, 250 mM NaCl, SaMazF at 3.3 mg/ml; apparent molecular weight about 31 500 Da.

B1: Staphylococcus aureus MazF toxin (SaMazF), N-terminally His-tagged (enzyme)
chain: IRRGDVYLADLSPVQGSEQGGVRPVVIIQNDTGNKYSPTVIVAAITGRINKAKIPTHVEIEKKKYKLDKDSVILLEQIRTLDKKRLKEKLTYLSDDKMKEVDNALMISLGLNAVAHQKN
notes: SaMazF, the MazF toxin (ribonuclease) of the Staphylococcus aureus mazEF module; wild type; 13C15N-labelled for the NMR experiments; The models number the tag's last residues Gln-1, Asp0, Pro1, so the tag's Pro may stand at position 1 of SaMazF in place of Met1; The measured mass is 14 794 Da, for the chain with the tag and without the N-terminal methionine; also called SaMazF2 (the dimer); …
As to B1, the “stoichiometry N” value amounted to 2.
